Test results published in patent US20140212436A1 (Xencor, published 2014).

B1: H1L1_MaE11 (novel humanized version of MaE11, anti-IgE antibody) (antibody)
heavy: not shown
light: DIQLTQSPSSLSASVGDRVTITCRASQSVDYDGDSYMNWYQQKPGQPPKLLIYAASYLGSEIPARFSGSGSGTDFTLTISSLQPEDFATYYCQQSHEDPYTFGAGTKLEIKRTVAAPSVFIFPPSDEQLKSGTASVVCLLNNFYPREAKVQWKVDNALQSGNSQESVTEQDSKDSTYSLSSTLTLSKADYEKHKVYACEVTHQGLSSPVTKSFNRGEC
notes: copies: 2 + 2
B2: MaE11_H1L1_IgG1_S267E/L328F (antibody)
heavy: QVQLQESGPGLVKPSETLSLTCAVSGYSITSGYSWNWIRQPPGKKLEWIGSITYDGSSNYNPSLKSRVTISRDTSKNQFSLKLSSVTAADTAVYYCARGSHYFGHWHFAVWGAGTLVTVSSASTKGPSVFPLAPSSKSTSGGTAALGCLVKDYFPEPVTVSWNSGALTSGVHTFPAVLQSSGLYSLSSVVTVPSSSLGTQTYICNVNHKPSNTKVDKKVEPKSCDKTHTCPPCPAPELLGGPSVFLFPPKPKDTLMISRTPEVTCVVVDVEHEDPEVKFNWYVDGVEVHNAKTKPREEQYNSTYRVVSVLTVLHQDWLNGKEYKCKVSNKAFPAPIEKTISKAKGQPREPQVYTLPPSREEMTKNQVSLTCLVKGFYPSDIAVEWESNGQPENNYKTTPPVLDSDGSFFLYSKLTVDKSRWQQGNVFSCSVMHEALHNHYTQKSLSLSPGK
light: B1 light
notes: anti-IgE
B3: MaE11_H1L1_IgG1_G236R/L328R (antibody)
heavy: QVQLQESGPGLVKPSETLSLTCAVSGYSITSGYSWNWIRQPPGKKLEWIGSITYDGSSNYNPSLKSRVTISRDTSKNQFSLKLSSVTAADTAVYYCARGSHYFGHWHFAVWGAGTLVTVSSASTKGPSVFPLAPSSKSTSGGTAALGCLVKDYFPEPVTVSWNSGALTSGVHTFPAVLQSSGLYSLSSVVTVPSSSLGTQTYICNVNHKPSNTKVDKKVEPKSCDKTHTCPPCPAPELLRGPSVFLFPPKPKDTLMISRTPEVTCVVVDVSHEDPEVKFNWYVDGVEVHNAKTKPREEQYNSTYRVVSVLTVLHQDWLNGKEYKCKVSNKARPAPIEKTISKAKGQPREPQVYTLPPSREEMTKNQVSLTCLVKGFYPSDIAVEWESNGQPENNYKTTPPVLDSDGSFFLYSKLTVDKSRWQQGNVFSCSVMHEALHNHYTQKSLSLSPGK
light: B1 light
notes: anti-IgE; also called H1L1 MaE11 Fc-KO

Tests used:
[1] = target: T1, recombinant human FcγRIIb protein (human, UniProt P31994 46-217); experiment: Biacore
T1 construct: Bought; injected as analyte in Biacore; also called CD32b
T1 sequence (looked up): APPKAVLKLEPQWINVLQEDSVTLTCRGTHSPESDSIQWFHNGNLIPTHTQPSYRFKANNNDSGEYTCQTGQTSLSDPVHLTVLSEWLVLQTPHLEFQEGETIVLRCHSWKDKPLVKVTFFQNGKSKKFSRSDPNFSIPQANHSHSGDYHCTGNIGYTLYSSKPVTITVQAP
Experimental: (§1) Variants were tested for receptor affinity using Biacore technology, also referred to as Biacore herein, a surface plasmon resonance (SPR) based technology for studying biomolecular interactions in real time. SPR measurements were performed using a Biacore 3000 instrument (Biacore, Piscataway, N.J.). A […] (Pierce Biotechnology) CM5 biosensor chip (Biacore) was generated using a standard primary amine coupling protocol. All measurements were performed using HBS-EP buffer (10 mM HEPES pH 7.4, 0.15 M NaCl, 3 mM EDTA, 0.005% vol/vol surfactant P20, Biacore). Antibodies at 20 nM or 50 nM in HBS-EP buffer were immobilized on the protein A/G surface and FcγRs were injected. After each cycle, the surface was regenerated by injecting glycine buffer (10 mM, pH 1.5). Data were processed by zeroing time and response before the injection of FcγR and by subtracting appropriate nonspecific signals (response of reference channel and injection of running buffer). Kinetic analyses were performed by global fitting of binding data with a 1:1 Langmuir binding model using BIAevaluation software (Biacore).
DNA encoding the Fc region of IgE, which contains the binding site for the anti-IgE antibodies used, was synthesized (Blue Heron Biotechnologies) and subcloned into the pTT5 vector. […]

[2] = target: T1, recombinant human FcγRIIb protein; experiment: Biacore, antibody captured on protein A
Experimental: as §1
(§2) DNA encoding the Fc region of IgE, which contains the binding site for the anti-IgE antibodies used, was synthesized (Blue Heron Biotechnologies) and subcloned into the pTT5 vector. […] SPR measurements were performed using the protein A/antibody capture method described above, except that analyte was either FcγRIIb or the Fc region of IgE. Data acquisition and fitting are as described above.

[3] = target: T2, Fc region of IgE (UniProt P01854-1 105-428, limits assumed); experiment: Biacore, antibody captured on protein A, IgE Fc as analyte
T2 construct: domain: Fc region of IgE; also called IgE Fc
T2 sequence (P01854 other isoform, or with tags, fused parts or gaps limits assumed): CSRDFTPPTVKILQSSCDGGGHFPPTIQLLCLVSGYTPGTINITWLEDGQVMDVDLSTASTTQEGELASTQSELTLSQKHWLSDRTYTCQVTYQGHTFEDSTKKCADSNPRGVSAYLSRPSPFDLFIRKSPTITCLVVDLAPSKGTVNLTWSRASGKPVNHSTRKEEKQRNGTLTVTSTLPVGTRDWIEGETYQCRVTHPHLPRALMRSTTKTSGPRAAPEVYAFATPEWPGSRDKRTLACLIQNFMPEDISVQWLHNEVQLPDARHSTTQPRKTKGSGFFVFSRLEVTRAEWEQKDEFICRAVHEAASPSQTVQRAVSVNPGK
Experimental: as §1, §2

Fold [1] | Kd [2] [nM] | Kd [3] [nM] | binding result [2] | Binder
1 | 2000 | 0.061 | – | B1
366 | 5.6 | 0.063 | – | B2
– | – | 0.064 | no binding | B3
